Measured values from patent US12103957B2, “NYESO TCR” (MEDIGENE IMMUNOTHERAPIES GMBH, priority 2018, dated 2024).

Legend:
Format in all cases: cell-based, human
[1] = tested on: MM415 tumor cell line (HLA-A*02 positive, NY-ESO-1/LAGE-1 positive); assay: Killing of tumor cells, Annexin V live-cell imaging (IncuCyte ZOOM); details: TCR-transduced CD8+ T cells, effector-to-target about 4:1
Protocol: (§1) The killing capacity of T11.8-10-17- or benchmark-TCR-transduced CD8^+ T cells (CD8-T11.8-10-17 or CD8 benchmark-TCR) was evaluated by co-culturing with the HLA-A*02 positive NY-ESO-1/LAGE-1 positive tumor cell line Me1624.38 (FIG. 2a). In addition, killing of CD8-T11.8-10-17 was also tested with the HLA-A*02 positive NY-ESO-1/LAGE-1 positive tumor cell line MM415 (FIG. 2b). As a negative control, untransduced CD8^+ enriched PBMC were used as effector cells (CD8 UT) or the HLA-A*02 positive but NY-ESO-1/LAGE-1 negative tumor cell line SK-Me123 was used as target cells. The co-cultures were set-up at an effector-to-target ratio of about 4:1, i.e. 10,000 adherent tumor cells were seeded one day prior to the co-culture and subsequently 40,000 transgenic TCR^+ T cells were added. An increase of red fluorescent target cells (Total Integrated Intensity in GCU×μm^2/Image) that indicates induction of apoptosis of target cells (Annexin V, red), was measured every four hours over a total time period of 67 hours using live-cell monitoring (IncuCyte® ZOOM).

[2] = tested on: Me1624.38 tumor cell line (HLA-A*02 positive, NY-ESO-1/LAGE-1 positive); assay: as above; details: TCR-transduced CD8+ T cells, effector-to-target about 4:1
Protocol: as §1

[3] = tested on: SK-Me123 tumor cell line (HLA-A*02 positive, NY-ESO-1/LAGE-1 negative); assay: as above; details: antigen-negative target line; effector-to-target about 4:1; 67 hours
Protocol: as §1

FM3.29 = assay: IFN-γ ELISA, stimulation by tumor cell lines; details: transduced CD8+ T cells 40,000, target cells 20,000
Text: (§2) IFN-γ ELISA was used to assess cytokine secretion upon stimulation of T11.8-10-17-transduced T cells (CD8_T11.8-10-17) with a panel of HLA-A*02:01 positive, NY-ESO-1/LAGE-1 positive human tumor cell lines (Me1624.38, FM6, FM3.29, MM415, SAOS2, U266). NY-ESO-1/LAGE-1 expression in the target cells was detected by NanoString nCounter® analysis. As positive control for T11.8-10-17-transduced T cells, T2 cells were loaded with SLL-peptide (10^−5 M). As negative controls for the effector function, T11.8-10-17-transduced T cells were co-cultured with T2 cells loaded with irrelevant (FTV) peptide (10^−5M), SK-Me123 (HLA-A2pos, NY-ESO-1/LAGE-1neg) or SKM1 (HLA-A2pos, NY-ESO-1/LAGE-1neg), or untransduced T cells were co-cultured with tumor cells or peptide-loaded T2 cells. Cultivation of target cells without effector cells served as an additional negative control. Target cells were co-cultured with T cells at a ratio of 2:1 using 40,000 T11.8-10-17-transduced T cells and 20,000 target cells. (FIG. 3).

FM6 = assay: IFN-γ ELISA, stimulation by tumor cell lines; details: transduced CD8+ T cells 40,000, target cells 20,000
Text: as §2

MM415 = assay: IFN-γ ELISA, stimulation by tumor cell lines; details: transduced CD8+ T cells 40,000, target cells 20,000
Text: as §2

Me1624.38 = assay: IFN-γ ELISA, stimulation by tumor cell lines; details: transduced CD8+ T cells 40,000, target cells 20,000
Text: as §2

SAOS2 = assay: IFN-γ ELISA, stimulation by tumor cell lines; details: transduced CD8+ T cells 40,000, target cells 20,000
Text: as §2

[4] = tested on: SK-Me123 (HLA-A2pos, NY-ESO-1/LAGE-1neg); assay: IFN-γ ELISA, stimulation by tumor cell lines; details: antigen-negative line; transduced CD8+ T cells 40,000, target cells 20,000
Text: as §2

[5] = tested on: SKM1 (HLA-A2pos, NY-ESO-1/LAGE-1neg); assay: IFN-γ ELISA, stimulation by tumor cell lines; details: antigen-negative line; transduced CD8+ T cells 40,000, target cells 20,000
Text: as §2

U266 = assay: IFN-γ ELISA, stimulation by tumor cell lines; details: transduced CD8+ T cells 40,000, target cells 20,000
Text: as §2

peptide-loaded T2 cells [6] = assay: IFN-γ ELISA, peptide-loaded T2 controls of the tumor cell line panel
Text: as §2

peptide-loaded T2 cells [7] = assay: Recognition of mismatched epitopes: IFN-γ ELISA with peptide-loaded T2 cells; details: ratio 1:1
Protocol: As a negative control, untransduced CD8^+ enriched PBMC (CD8_UT) were used as effector cells or TCR-transgenic T cells were stimulated with irrelevant (irr.; […]) peptide-loaded T2 cells (10^−5 M). Background IFN-γ secretion of target cells was also tested (targets only). As a positive control T cells were activated by SLL peptide (#10*)-loaded T2 cells (10^−5 M). […] IFN-γ secretion was measured by standard ELISA in [pg/mL].

[8] = tested on: HLA-A*02:01-transgenic K562 cells; assay: Recognition of ivtRNA mismatched epitopes: IFN-γ ELISA with HLA-A*02:01-transgenic K562 cells; details: 16 hours
Protocol: For this experiment, 3×10^6 K562 cells in 300 μl RPMI1640 medium were electroporated with 20 μg either NY-ESO-1 or eGFP-ivtRNA (300 Volt and 300 μF; exponential pulse). As positive control, T cells were stimulated with HLA-A*02:01-transgenic K562 cells loaded with either the SLL-peptide (10^−5M) (K562-A2+SLL) or with 20 μg ivtRNA encoding NY-ESO-1 (K562-A2+NY-ESO-1). As a negative control HLA-A*02:01-transgenic K562 were either loaded with irrelevant peptide (10^−5M; K562-A2+FTV) or with 20 μg ivtRNA encoding eGFP (K562-A2+eGFP).

[9] = tested on: T2 cells loaded with NY-ESO-1/LAGE-1157-165 (SLL) peptide (T2(SLL)); assay: Secretion of MIP-1α and MIP-1β, multiplex assay (Milliplex MAP Kit); details: T2(SLL) 10^−5 M; ratio 1:1, 10 000 cells each; 18 hours; two donors; compared with the other TCR
Protocol: As negative control, T11.8-10-17- or benchmark-transgenic CD8^+ T cells were stimulated with HLA-A*02:01 positive FTV-loaded T2 cells or untransduced CD8^+ enriched PBMC (CD8_ut) were co-cultured with peptide-loaded T2 cells. Furthermore, T2 cells or T cells were cultured separately.
Target cells and T cells were co-cultured at a ratio of 1:1 using 10 000 target cells and 10 000 T11.8-10-17- or benchmark-TCR-transduced T cells. Secretion of MIP-1α and MIP-1β by either T11.8-10-17- or benchmark-transgenic CD8^+ T cells was determined 18 hours after setting up the co-culture by multiplex assay using the Milliplex MAP Kit and analyzed by the MagPix analyzer.

B1: T11.8-10-17: TCR of T cell clone T11.8-10-17 specific for NY-ESO-1/LAGE-1157-165 on HLA-A*02:01; variable α SEQ ID NO: 10, variable β SEQ ID NO: 11 (protein, listed as Homo sapiens)
alpha: MKSLRVLLVILWLQLSWVWSQQKEVEQNSGPLSVPEGAIASLNCTYSDRGSQSFFWYRQYSGKSPELIMFIYSNGDKEDGRFTAQLNKASQYVSLLIRDSQPSDSATYLCAADDKIIFGKGTRLHILPN
beta: MGSWTLCCVSLCILVAKHTDAGVIQSPRHEVTEMGQEVTLRCKPISGHDYLFWYRQTMMRGLELLIYFNNNVPIDDSGMPEDRFSAKMPNASFSTLKIQPSEPRDSAVYFCASSRGGSGYTFGSGTRLTVVE
start of increase of red fluorescence (killing) [1]: 10 h | killing of target cells (increase of red fluorescence, Annexin V) ([1]; 67 hours): showed killing | start of increase of red fluorescence (killing) [2]: 10 h | killing of target cells (increase of red fluorescence, Annexin V) ([2]; 67 hours): showed killing | killing of target cells (increase of red fluorescence, Annexin V) [3]: no increase of red fluorescence was observed | IFN-γ secretion (FM3.29): high amounts of IFN-γ secretion | IFN-γ secretion (FM6): high amounts of IFN-γ secretion | IFN-γ secretion (MM415): high amounts of IFN-γ secretion | IFN-γ secretion (Me1624.38): high amounts of IFN-γ secretion | IFN-γ secretion (SAOS2): high amounts of IFN-γ secretion | recognition (IFN-γ secretion) [4]: no recognition | recognition (IFN-γ secretion) [5]: no recognition | IFN-γ secretion (U266): high amounts of IFN-γ secretion | IFN-γ secretion (peptide-loaded T2 cells [6]; T2 cells loaded with SLL-peptide (10^−5 M)): high amounts of IFN-γ secretion | recognition (IFN-γ secretion) (peptide-loaded T2 cells [6]; T2 cells loaded with irrelevant (FTV) peptide (10^−5 M)): no recognition | peptide recognition (IFN-γ secretion) (peptide-loaded T2 cells [7]; T2 + irrelevant peptide (FTVSGNILTI) 10^−5 M): not the irrelevant peptide | cross-recognition (IFN-γ secretion) (peptide-loaded T2 cells [7]; T2 + peptide #3 10^−5 M): cross-recognized | cross-recognition (IFN-γ secretion) (peptide-loaded T2 cells [7]; T2 + peptide #6 10^−5 M): slightly activated | cross-recognition (IFN-γ secretion) (peptide-loaded T2 cells [7]; T2 + peptide #11 10^−5 M): slightly activated | cross-recognition (IFN-γ secretion) (peptide-loaded T2 cells [7]; T2 + peptide #32 10^−5 M): slightly activated | cross-recognition (IFN-γ secretion) (peptide-loaded T2 cells [7]; T2 + peptide #34 10^−5 M): slightly activated | cross-recognition (IFN-γ secretion) (peptide-loaded T2 cells [7]; T2 + peptide #51 10^−5 M): slightly activated | peptide recognition (IFN-γ secretion) (peptide-loaded T2 cells [7]; T2 + positive control peptide SLL (SLLMWITQC) 10^−5 M): recognized | cross-recognition of internally processed peptide (IFN-γ release) ([8]; K562-A2+#3, ivtRNA long peptide): no cross-recognition | cross-recognition of internally processed peptide (IFN-γ release) ([8]; K562-A2+#6, ivtRNA long peptide): no cross-recognition | cross-recognition of internally processed peptide (IFN-γ release) ([8]; K562-A2+#11, ivtRNA long peptide): no cross-recognition | cross-recognition of internally processed peptide (IFN-γ release) ([8]; K562-A2+#32, ivtRNA long peptide): no cross-recognition | cross-recognition of internally processed peptide (IFN-γ release) ([8]; K562-A2+#34, ivtRNA long peptide): no cross-recognition | cross-recognition of internally processed peptide (IFN-γ release) ([8]; K562-A2+#51, ivtRNA long peptide): no cross-recognition | recognition (IFN-γ release) ([8]; K562-A2+NYESO, NY-ESO-1-ivtRNA transfected): recognized | recognition (IFN-γ release) ([8]; K562-A2+SLL, peptide-loaded 10^−5 M, target:T cell 2:1): recognized | recognition (IFN-γ release) ([8]; K562-A2+eGFP ivtRNA): did not recognize | recognition (IFN-γ release) ([8]; K562-A2+irr., irrelevant peptide 10^−5 M): did not recognize | MIP-1α secretion [9]: markedly lower amounts | MIP-1β secretion [9]: markedly lower amounts
